To fix the notation:
B1: GST-hRio2NES-R M11L (peptide)
chain: GKIEELAQNFETLEFSR
B2: GST-hRio2NES-R F13I (peptide)
chain: GKIEELAQNFETMEISR
B3: GST-hRio2NES-R F13L (peptide)
chain: GKIEELAQNFETMELSR
B4: GST-hRio2NES-R F13V (peptide)
chain: GKIEELAQNFETMEVSR

In this assay the target is Full-length human CRM1 (HsCRM1), O14980. Briefly: GST pull-down, SDS/PAGE band intensity. The following applies: chain shown with the change; excess ScRanGTP; triplicate experiments; parent: est. 100; read off a plot.
Full-length human CRM1 (HsCRM1), O14980, sequence (O14980 whole entry): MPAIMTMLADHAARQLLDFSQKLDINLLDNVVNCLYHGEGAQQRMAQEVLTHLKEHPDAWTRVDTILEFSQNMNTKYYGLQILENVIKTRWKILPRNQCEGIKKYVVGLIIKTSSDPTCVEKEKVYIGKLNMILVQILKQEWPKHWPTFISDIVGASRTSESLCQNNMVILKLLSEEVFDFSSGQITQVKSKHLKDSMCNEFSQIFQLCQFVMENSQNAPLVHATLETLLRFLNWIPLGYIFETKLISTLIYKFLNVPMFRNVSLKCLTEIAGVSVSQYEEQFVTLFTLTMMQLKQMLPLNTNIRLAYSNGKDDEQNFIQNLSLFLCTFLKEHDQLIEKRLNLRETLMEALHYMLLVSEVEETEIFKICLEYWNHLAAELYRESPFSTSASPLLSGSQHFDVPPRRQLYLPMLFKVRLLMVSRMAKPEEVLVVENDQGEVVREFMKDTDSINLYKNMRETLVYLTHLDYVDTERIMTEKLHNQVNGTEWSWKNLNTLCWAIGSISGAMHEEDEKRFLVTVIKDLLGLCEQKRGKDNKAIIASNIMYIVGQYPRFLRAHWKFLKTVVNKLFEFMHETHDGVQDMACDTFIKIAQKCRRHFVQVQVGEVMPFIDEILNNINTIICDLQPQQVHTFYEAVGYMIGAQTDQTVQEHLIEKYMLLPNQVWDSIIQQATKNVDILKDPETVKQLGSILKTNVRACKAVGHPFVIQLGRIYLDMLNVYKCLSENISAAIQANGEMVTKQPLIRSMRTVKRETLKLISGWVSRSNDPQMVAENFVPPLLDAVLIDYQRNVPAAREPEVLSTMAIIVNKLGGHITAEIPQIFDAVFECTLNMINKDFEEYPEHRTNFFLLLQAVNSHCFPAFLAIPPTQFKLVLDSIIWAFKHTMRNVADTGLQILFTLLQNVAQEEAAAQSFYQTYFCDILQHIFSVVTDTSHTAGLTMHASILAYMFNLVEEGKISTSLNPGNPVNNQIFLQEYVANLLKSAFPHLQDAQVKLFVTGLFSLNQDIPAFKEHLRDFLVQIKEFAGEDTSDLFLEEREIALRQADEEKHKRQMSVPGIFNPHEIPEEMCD
For the molecule B1, the percent of parent came to 105%.
In the case of B2, the percent of parent was 150%.
B3: the percent of parent is 130%.
On to B4, for which the percent of parent came out at 140%.

For the origin of these results see PMC4596688, “Structural determinants of nuclear export signal orientation in binding to exportin CRM1” (eLife, 2015).
